The values that follow come from article PMC10350915, “Development of a New Class of CXCR4-Targeting Radioligands Based on the Endogenous Antagonist EPI-X4 for Oncological Applications” (Journal of Medicinal Chemistry, 2023).

Square brackets hold non-standard residues; d marks the D form. Side chains are listed from the residue outwards. Ends that are not written are not given here. Peptide text beside a SMILES is read from it. * marks the point of attachment. DOTA = O=C(O)CN1CCN(CC(=O)O)CCN(CC(=O)*)CCN(CC(=O)O)CC1; dTyr(3-I) = N[C@H](Cc1ccc(O)c(I)c1)C(=O)O; 2Nal = N[C@@H](Cc1ccc2ccccc2c1)C(=O)O; Palmitoyl = CCCCCCCCCCCCCCCC(=O)*; dNMeOrn = CN[C@H](CCCN)C(=O)O; 4Amb = NCc1ccc(C(=O)O)cc1

The conditions of series [1]: cited from earlier work.
The conditions of series [2]: cited from earlier work. This is another data set of the same source.
Series [3] can be described thus: Shelf-life of 177Lu-labeled ligands at room temperature (radio-HPLC). The class given is physicochemical. As to the method: The shelf-life of each ^177Lu-labeled ligand was monitored at room temperature up to 24 h after radiolabeling.
The shelf-lives of ^177Lu-labeled ligands were assessed at room temperature (RT) in the buffer used for labeling, as described above. For the analysis, 5 μL was withdrawn at desired time points (0, 1, 2, 4, and 24 h) from the stock solution and mixed with 50 μL of the Ca-DTPA solution. 20 μL of this mixture was withdrawn and injected in RP-HPLC.

Series [4] is classed as physicochemical. The settings on record: pH 7.4. As for the experimental part:
In a prelubricated eppendorf tube, a presaturated mixture of 500 μL of octanol and 500 μL of phosphate-buffered saline (PBS) were added. 1 pmol of the ^177Lu-labeled ligand was pipetted into this mixture, vortexed for 30 min, and then centrifuged at 3000 rpm for 10 min to achieve phase separation. Aliquots of 100 μL were removed from the octanol and from the PBS phase and the activity measured in a γ-counter. The distribution coefficient was calculated as the average log ratio value of the radioactivity in the organic fraction and PBS fraction.

The format of series [5] is in vitro ADME, human. As for the experimental part: Representative radiochromatograms are provided in Figure S25 for ^177Lu-1, ^177Lu-2, and ^177Lu-7. This included ^177Lu-9 despite its fatty acid chain.
(§1) Figure 3 Stability of the ^177Lu ligands in human plasma at 37 °C, expressed as % of intact radioligand over time, assessed by radio-HPLC. The % of plasma protein binding (PPB) after 60 min incubation is provided in parenthesis and it is expressed as the % of radioligand in the protein fraction (pellet) versus the total activity in the plasma. TEXT PRINTED IN THE PICTURE: ^177Lu-1: PPB: 35% | ^177Lu-2: PPB: 22% | ^177Lu-5: PPB: 42% | ^177Lu-6: PPB: 38% | ^177Lu-7: PPB: 39% | ^177Lu-9: PPB: 37%
To 1 mL of fresh human plasma, previously equilibrated at 37 °C, 500 pmol (8–10 MBq) of each ^177Lu-labeled ligand was added. The mixture was incubated at 37 °C for different time points (0, 15, 30, 60, and 120 min). At each time point, a 100 μL aliquot was removed and treated with 1.5 excess (v/v) of acetonitrile, to precipitate plasma proteins, followed by centrifugation for 5 min at 3500 rpm. The supernatant was collected and the process of protein precipitation was repeated. Afterward, 100 μL from the supernatant was taken, diluted with water at a ratio of 1:10 (v/v), and injected into radio-HPLC. The radioligand (in)stability was assessed by quantifying the percentage of intact radioligand over time.

The format of series [6] is in vitro ADME. The settings on record: human, plasma, plasma protein binding (PPB). As for the experimental part: as §1
For the determination of plasma protein binding (PPB), 100 μL from the plasma incubated with the ^177Lu ligand was removed and measured in a γ-counter (total radioactivity). Protein precipitation and separation followed, as described above. The supernatant and the protein pellet were then measured in a γ-counter. The percentage of plasma protein binding was calculated as the ratio between the protein-bound radioactivity and the total radioactivity in the plasma.

A further series deals with Ghost-CXCR4 cells. In words: Cellular uptake and distribution in Ghost-CXCR4 cells. The class given is cell-based, human. The settings on record: 37 °C, 60 min. As for the experimental part:
Figure 4 In vitro assessment in Ghost-CXCR4 cells at 37 °C. […] Each experiment was performed in triplicate. Results are means ± SD [% of applied activity] from a minimum of two separate experiments. […] Cellular uptake was interrupted at 15, 30, and 60 min by removing the medium and washing twice with ice-cold PBS. The cell surface-bound radioligand was obtained by washing cells twice with ice-cold glycine buffer (pH 2.8) followed by a collection of the internalized fraction after treating the cells with 1 M sodium hydroxide (NaOH). The activity in each fraction was measured in a γ-counter. […] The results were expressed as a percentage of the applied radioactivity after subtracting the nonspecific uptake.

In a further series the test system is Jurkat xenografts. The class given is in vivo, mouse. The settings on record: 1 h p.i., SPECT/CT or PET/CT. As for the experimental part:
The ability of the ^177Lu ligands to target CXCR4 in vivo was assessed by SPECT/CT imaging in Jurkat xenografts. […] 1 h after injection, the remaining amount of radioligand in the body (and vice versa, the washout) was quantified by measuring the total body activity (mouse) in a dose calibrator. The % of the radioligand remaining in the body after 1 h is reported in Figure 6A as % of the remaining activity in reference to the injected activity (100%).
Figure 6 SPECT/CT images as maximum intensity projections (MIPs) of Jurkat tumor-bearing mice at 1 h p.i. of ^177Lu-labeled ligands (200 pmol, ∼15 MBq). […] (B) Same SPECT/CT images of ^177Lu-1, ^177Lu-2, ^177Lu-5, and ^177Lu-6, adapted in a lower scale. T: tumor, L: liver, and K: kidneys. […] TEXT PRINTED IN THE PICTURE: (A) ^177Lu-1: Remaining Activity (% injected): 6 % | (A) ^177Lu-2: Remaining Activity (% injected): 7 % | (A) ^177Lu-5: Remaining Activity (% injected): 7 % | (A) ^177Lu-6: Remaining Activity (% injected): 8 % | (A) ^177Lu-7: Remaining Activity (% injected): 55 % | (A) ^177Lu-9: Remaining Activity (% injected): 94 %
The experimental protocol involving animals was approved by the Veterinary Office (Department of Health) of the Cantonal Basel-Stadt (Approval No. 30515) in accordance with the Swiss regulations for animal treatment. Female athymic nude-Foxn1^nu/Foxn1^+ mice (Envigo, The Netherlands), 4–6 weeks old, were injected subcutaneously with 10^7 Jurkat cells in a 200 μL (1:1) mixture of PBS and Matrigel (CorningMatrigelMembrane matrix, Fischer Scientific, Germany) on the right shoulder. The tumors were allowed to grow for 3–4 weeks before commencement of the experiments.
Nude mice bearing Jurkat xenografts were intravenously injected via the tail vein with ∼15 MBq (200 pmol) of the ^177Lu ligands and 8 MBq (200 pmol) of ^68Ga-7 were euthanized 1 h post injection (p.i.). The radioactivity in the syringe before and after injection was measured followed by measuring the amount of radioactivity remaining in the sacrificed mice. […]

The conditions of series [7]: in vivo; cited from earlier work.

As to LVRYTKKVPQVSTPTL [EPI-X4], the “half-life in human plasma” value in series [1] is on record as 17 min.
For the molecule `CN1C(=O)[C@@H](Cc2ccc(O)c(I)c2)NC(=O)CNC(=O)[C@H](Cc2ccc3ccccc3c2)NC(=O)[C@H](CCCN=C(N)N)NC(=O)[C@H]1CCCNC(=O)c1ccc(CNC(=O)CN2CCN(CC(=O)O)CCN(CC(=O)O)CCN(CC(=O)O)CC2)cc1.[177Lu]` [^177Lu-Pentixather, cyclo(3-iodo-D-Tyr^1-D-[NMe]Orn^2(AMBS-(^177Lu-DOTA)-Arg^3-Nal^4-Gly^5)] (cyclo([2Nal]G[dTyr(3-I)][dNMeOrn]([4Amb-DOTA])R)), the “plasma protein binding (PPB)” value in series [2] is recorded as 97%.
On to `CCCCCCCCCCCCCCCC(=O)N[C@@H](CCC(=O)O)C(=O)NCCCC[C@H](NC(=O)[C@H](CCCNC(=N)N)NC(=O)[C@H](CO)NC(=O)[C@H](Cc1c[nH]c2ccccc12)NC(=O)[C@H](CCCNC(=N)N)NC(=O)[C@H](CC(C)C)NC(=O)[C@H](N)CC(C)C)C(=O)N[C@@H](CCCCNC(=O)CN1CCN(CC(=O)O)CCN(CC(=O)O)CCN(CC(=O)O)CC1)C(N)=O` [^177Lu-9, metal not drawn] (H-[dL]LRWSRK([Glu-Palmitoyl])K(DOTA)-NH2; N-terminus assumed), for which the “radiochemical purity (%)” value in [3] (0 h after radiolabeling) was 96 ± 3%; in [3] (1 h after radiolabeling), 96 ± 2%; in series [3] (2 h after radiolabeling), 94 ± 1%; in [3] (4 h after radiolabeling) it was 93 ± 1%. Further, the logD (commonly the decadic logarithm of the distribution of all forms, ionised or not, between an organic phase and buffer at a given pH) in series [4] came out at 0.29 ± 0.1. Also, the “metabolic stability in plasma (in words)” value in series [5] (human, plasma) is “high metabolic stability in plasma up to 4 h”. The fraction unbound (commonly the share of the substance not bound to proteins or other matrix) at 60 min in [6] is 0.63. The “cellular uptake (% of the applied activity)” value in the series on Ghost-CXCR4 cells stood at 3.25 ± 0.06%. Besides, in the series on Ghost-CXCR4 cells, the “subcellular distribution (membrane-bound vs internalized)” value is “almost entirely internalized”. For the same molecule, the “visualization of CXCR4-expressing tumor xenograft by imaging” value with Jurkat xenografts is recorded as “failed to visualize CXCR4-expressing tumors”.
In [4], `CC[C@H](C)[C@H](N)C(=O)N[C@@H](CC(C)C)C(=O)N[C@@H](CCCNC(=N)N)C(=O)N[C@@H](Cc1c[nH]c2ccccc12)C(=O)N[C@@H](CO)C(=O)N[C@@H](CCCNC(=N)N)C(=O)N[C@@H](CCCCN)C(=O)N[C@@H](CC(C)C)C(=O)N1CCC[C@H]1C(=O)N[C@@H](CO)C(=O)N[C@H](C(=O)N[C@@H](CO)C(=O)N[C@@H](CCCCNC(=O)CN1CCN(CC(=O)O)CCN(CC(=O)O)CCN(CC(=O)O)CC1)C(=O)O)C(C)C` [^177Lu-2, metal not drawn] (H-ILRWSRKLPSVSK(DOTA)-OH; N-terminus and C-terminus assumed) yielded a logD of -3.23 ± 0.23. Moreover, the “time to complete degradation in human plasma” value in [5] turned out to be 60 min. The free fraction (fraction unbound) at 60 min in [6] was 0.78.
On to `CC[C@H](C)[C@H](N)C(=O)N[C@@H](CC(C)C)C(=O)N[C@@H](CCCNC(=N)N)C(=O)N[C@@H](Cc1c[nH]c2ccccc12)C(=O)N[C@@H](CO)C(=O)N[C@@H](CCCNC(=N)N)C(=O)N[C@@H](CCCCN)C(=O)N[C@@H](CC(C)C)C(=O)N1CCC[C@H]1C(=O)N[C@@H](CS)C(=O)N[C@H](C(=O)N[C@@H](CO)C(=O)O)C(C)C` [JM#21, I^1LRWSRK^7LPCVS^12], for which the “half-life in human plasma” value in series [1] was about 6 min.
In the case of `CN1C(=O)[C@@H](Cc2ccc(O)cc2)NC(=O)CNC(=O)[C@H](Cc2ccc3ccccc3c2)NC(=O)[C@H](CCCN=C(N)N)NC(=O)[C@H]1CCCNC(=O)c1ccc(CNC(=O)CN2CCN(CC(=O)[O-])CCN(CC(=O)[O-])CCN(CC(=O)[O-])CC2)cc1.[68Ga+3]` [^68Ga-Pentixafor, cyclo(D-Tyr^1-D-[NMe]Orn^2(AMBS-(^68Ga-DOTA))-Arg^3-Nal^4-Gly^5)] (cyclo([2Nal]G[dY][dNMeOrn]([4Amb-DOTA])R)), in series [7], the “activity in the blood” value is 1.08 ± 0.27 %IA/g and the “uptake in the kidneys” value is recorded as 3.06 ± 0.63 %IA/g.
